The labels stand for the following.
T1: Etk/Bmx (epithelial tyrosine kinase), wild type (UniProt P51813 1-675)
T1 construct: Plasmids after Tsai et al. 2000; also called wt-Etk
T1 sequence (looked up): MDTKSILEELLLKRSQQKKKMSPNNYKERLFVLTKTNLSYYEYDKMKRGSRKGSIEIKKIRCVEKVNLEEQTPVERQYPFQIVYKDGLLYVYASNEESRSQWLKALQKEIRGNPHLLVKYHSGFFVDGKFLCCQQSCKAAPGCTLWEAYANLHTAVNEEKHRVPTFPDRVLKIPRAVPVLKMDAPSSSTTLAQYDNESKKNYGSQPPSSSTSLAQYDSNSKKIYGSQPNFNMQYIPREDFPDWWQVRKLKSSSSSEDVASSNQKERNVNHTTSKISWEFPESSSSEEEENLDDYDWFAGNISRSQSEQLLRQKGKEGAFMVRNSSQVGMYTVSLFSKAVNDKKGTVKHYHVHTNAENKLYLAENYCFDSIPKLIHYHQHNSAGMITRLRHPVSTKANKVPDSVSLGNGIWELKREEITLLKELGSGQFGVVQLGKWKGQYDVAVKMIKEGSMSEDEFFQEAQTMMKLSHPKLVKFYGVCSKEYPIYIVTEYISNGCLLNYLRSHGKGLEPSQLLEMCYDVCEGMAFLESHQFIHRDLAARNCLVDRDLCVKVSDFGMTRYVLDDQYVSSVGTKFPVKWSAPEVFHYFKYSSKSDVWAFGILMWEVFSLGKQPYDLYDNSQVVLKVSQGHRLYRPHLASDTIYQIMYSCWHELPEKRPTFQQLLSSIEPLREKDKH

T2: wild-type protease-activated receptor 2 (wt hPar2) (human, UniProt P55085 37-397)
T2 construct: whole, on cells; Species read from the name hPar2
T2 sequence (looked up): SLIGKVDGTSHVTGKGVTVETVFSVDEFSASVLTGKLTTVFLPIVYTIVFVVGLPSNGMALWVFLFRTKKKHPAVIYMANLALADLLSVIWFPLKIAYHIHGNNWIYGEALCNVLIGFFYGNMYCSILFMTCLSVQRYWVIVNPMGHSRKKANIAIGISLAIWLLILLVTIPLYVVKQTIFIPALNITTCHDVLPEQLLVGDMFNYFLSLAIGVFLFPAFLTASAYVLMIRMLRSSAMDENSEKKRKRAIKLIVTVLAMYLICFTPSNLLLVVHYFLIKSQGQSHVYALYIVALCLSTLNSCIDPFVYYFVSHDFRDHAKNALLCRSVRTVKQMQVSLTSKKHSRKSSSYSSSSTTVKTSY

T3: HA-tagged wt hPar1 (human, UniProt P25116 42-425)
T3 construct: whole, on cells; Tested in lysates of transfected cells; also called HA-wt hPar1; HA-wthPar1; not shown: HA tag added downstream of the ATG start codon
T3 sequence (looked up): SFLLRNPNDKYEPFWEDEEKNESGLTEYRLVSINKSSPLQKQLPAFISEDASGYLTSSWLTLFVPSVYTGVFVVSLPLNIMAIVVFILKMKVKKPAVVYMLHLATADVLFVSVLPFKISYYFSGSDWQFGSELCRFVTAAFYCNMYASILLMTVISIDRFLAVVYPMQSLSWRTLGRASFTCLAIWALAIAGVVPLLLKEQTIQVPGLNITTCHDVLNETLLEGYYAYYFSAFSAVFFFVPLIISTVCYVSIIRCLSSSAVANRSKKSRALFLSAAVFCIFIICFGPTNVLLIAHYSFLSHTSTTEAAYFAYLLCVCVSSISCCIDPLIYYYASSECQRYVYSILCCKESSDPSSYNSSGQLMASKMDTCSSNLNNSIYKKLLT

B1: HA-tagged mutant hPar1-7A (receptor, human, UniProt P25116 42-425, looked up)
chain: T3 sequence (looked up) with C337A, Q338A, R339A, Y340A, V341A, Y342A, S343A
notes: whole, on cells; Tested in lysates of transfected cells; also called HA-hPar1-7A; PAR1A7; not shown: HA tag
B2: GST-PH-Vav3 (other, UniProt Q9UKW4 400-502, looked up)
chain: RPQGDGEIRITTLDKHTKQERHIFLFDLAVIVCKRKGDNYEMKEIIDLQQYKIANNPTTDKENKKWSYGFYLIHTQGQNGLEFYCKTKDLKKKWLEQFEMALS
notes: domain: PH domain; also called PH-domain-Vav3; Vav3-PH-domain; not shown: GST tag

The target of one test is Akt (PKB) (UniProt P31749 1-480, limits assumed). The test is described as follows: co-immunoprecipitation of Akt and PAR1 in transfected HU cells. How it is done: Western blot and immunoprecipitation analysis: Cells were activated with agonist peptide […] (SEQ ID NO: 35) for the indicated periods of time and solubilized in lysis buffer containing 10 mM Tris-HCl, pH 7.4, 150 mM NaCl, 1 mM EDTA, 1% TritonX-100, and protease inhibitors ([…] aprotinin, 1 mM phenylmethylsulfonylfluoride, and […] leupeptin) at 4° C. for 30 min. The cell lysates were subjected to centrifugation at 12,000 rpm at 4° C. for 20 min. We used 400 μg of the supernatants with anti-PAR₁ (ATAP, Santa Cruz, Calif. 1 μg), anti-HA (anti-HA sc-7392; Santa Cruz, Calif.), anti-Shc or Etk/Bmx antibodies (10 μg/ml). After overnight incubation, Protein A-Sepharose beads (Amersham Pharmacia Biotech, Buckinghamshire, UK) were added to the suspension (50 μl), which was rotated at 4° C. for 1 h. The immunocomplexes were eluted and run electrophoretically on a 10% SDS-PAGE gel, followed by transfer to an Immobilon-P membrane (Millipore). […] Immunoreactive bands were detected by enhanced chemiluminescence (ECL). […]
(§1) Namely, without wishing to be bound by theory the PAR₁-C-tail appears to be an anchor region for association with PH-domain containing proteins. For this purpose, the association between Akt (which is ubiquitously expressed in the cells) and PAR₁ was analyzed, following activation. […]

Test [1] has as its target T1, Etk/Bmx (epithelial tyrosine kinase), …. The test is described as follows: co-immunoprecipitation with anti-HA, anti-Bmx blot, MCF7 clones after PAR1 activation. How it is done: After overnight incubation, Protein A-Sepharose beads (Amersham Pharmacia Biotech, Buckinghamshire, UK) were added to the suspension (50 μl), which was rotated at 4° C. for 1 h. The immunocomplexes were eluted and run electrophoretically on a 10% SDS-PAGE gel, followed by transfer to an Immobilon-P membrane (Millipore). Membranes were blocked and probed with 1 μg/ml amounts of the appropriate antibodies as follows: anti-PAR₁ thrombin receptor mAb, (ATAP, from Santa Cruz, 1:1000); anti-Shc (BD, 1:2000); anti-Bmx (Transduction Laboratories, 1:1000) or anti-PY (Upstate 4G10, 1:2500), suspended in 3% BSA in 10 mM Tris-HCl, pH 7.5, 100 mM NaCl, and 0.5% Tween-20. After washes the blots were incubated with secondary antibodies conjugated to horseradish-peroxidase. Immunoreactive bands were detected by enhanced chemiluminescence (ECL). Membranes were stripped and incubated with anti-IP antibodies to ensure equal protein load.
Based on the competition assay mutated hPar1 constructs with successive replacement of seven residues (378-384; CQRYVYS) were prepared. […] The clones expressing either HA-tagged wt hPar1 or a mutant construct of HA-hPar1-7A were activated and further analyzed for co-immunoprecipitation (IP) of PAR₁ with Etk/Bmx. […] The blots were detected by anti-Bmx (Transduction Laboratories, BD Biosciences, CA) for the identification of Etk/Bmx-associated PAR₁. […]

Test [2] concerns the target B1. The test is described as follows: cell lysates applied on GST-PH-Vav3. The method, then:
GST fusion protein columns. Fusion proteins were purified from transformed Escherichia coli bacteria that had been stimulated with isopropyl-β-D-thio-galactopyranoside (IPTG) at a concentration of […]. Bacteria were lysed according to published procedures, and then immobilized on glutathione Sepharose beads (Pharmacia). Briefly, MDA-MB-435 cell lysates were applied to GST-PAR1C-tail or GST control columns. After 2 h binding periods to the designated protein/s cell lysates to the columns, a washing step was performed. The washes (×3) were carried out using a “wash buffer” including: 100 mM NaCL, 20 mM EDTA, 10 mM Tris, pH 8.0 and 1% Triton ×100. This step was performed in order to wash out all non-specific proteins, leaving the GST-PAR₁-C-tail column firmly bound to targeted cell lysate proteins. Next, elution of bound proteins was performed via the addition of gel “sample buffer” and appropriate boiling. The samples were run electrophoretically on SDS-PAGE gels, followed by immunoblotting with the indicated antibodies and ECL detection. GST-PH-Etk/Bmx. […]
as §1

Test [3] addresses T2, wild-type protease-activated receptor 2 …. The test is described as follows: cell lysates applied on GST immobilized PH-domain columns (PAR2).
The target of another test is T3, HA-tagged wt hPar1. The test is described as follows: lysates of cells transfected with HA-tag-hPar1 applied on GST-PH-Vav3. The method, then: GST fusion protein columns. Fusion proteins were purified from transformed Escherichia coli bacteria that had been stimulated with isopropyl-β-D-thio-galactopyranoside (IPTG) at a concentration of […]. Bacteria were lysed according to published procedures, and then immobilized on glutathione Sepharose beads (Pharmacia). Briefly, MDA-MB-435 cell lysates were applied to GST-PAR1C-tail or GST control columns. After 2 h binding periods to the designated protein/s cell lysates to the columns, a washing step was performed. The washes (×3) were carried out using a “wash buffer” including: 100 mM NaCL, 20 mM EDTA, 10 mM Tris, pH 8.0 and 1% Triton ×100. This step was performed in order to wash out all non-specific proteins, leaving the GST-PAR₁-C-tail column firmly bound to targeted cell lysate proteins. Next, elution of bound proteins was performed via the addition of gel “sample buffer” and appropriate boiling. The samples were run electrophoretically on SDS-PAGE gels, followed by immunoblotting with the indicated antibodies and ECL detection. GST-PH-Etk/Bmx. The PH domain in Etk/Bmx was bound to GST column as previously described (Chen R, et al. (2001) Nat Cell Biol. 3: 439-444).
Next, a panel of cell-lines was transfected with HA-tag-hPar1. Cell lysates were prepared and applied onto GST-PH-Akt or GST-PH-Vav₃. […]

Numbering of substitutions follows the chain as printed.

The record followed here is patent US20130331333A1 (HADASIT MEDICAL RESEARCH SERVICES AND DEVELOPMENT, published 2013).

Sequence of Akt (PKB) (P31749 whole entry): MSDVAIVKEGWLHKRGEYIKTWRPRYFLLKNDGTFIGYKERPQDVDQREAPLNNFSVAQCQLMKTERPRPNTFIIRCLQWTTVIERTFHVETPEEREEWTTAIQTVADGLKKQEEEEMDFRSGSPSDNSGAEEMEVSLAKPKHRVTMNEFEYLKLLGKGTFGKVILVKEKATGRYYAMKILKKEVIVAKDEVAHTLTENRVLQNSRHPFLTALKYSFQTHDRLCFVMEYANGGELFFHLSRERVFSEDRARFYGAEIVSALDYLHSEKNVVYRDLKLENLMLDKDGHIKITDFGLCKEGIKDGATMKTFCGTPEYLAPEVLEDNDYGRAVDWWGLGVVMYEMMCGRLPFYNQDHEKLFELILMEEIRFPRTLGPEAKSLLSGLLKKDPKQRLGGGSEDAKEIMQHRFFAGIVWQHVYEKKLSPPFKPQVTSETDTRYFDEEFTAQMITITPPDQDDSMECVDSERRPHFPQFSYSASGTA

In the case of B1, the binding result (in the test with Akt (PKB); in test [1]) was “no binding” each time.

As for B2, the binding result in test [2] was “no binding”; in test [3], “binds”; with HA-tagged wt hPar1 it was “binds”.
